Laboratory results published in patent US20210130436A1 (published 2021).
Where a chain is given by its changes, count along the chain named. Names and notes keep the numbering of the source. Values belong to the binder of their own block, whether it stands above or below them.

Legend:
[1] = target: T1, CD28 endogenously expressed on Jurkat/IL2 reporter cells (human, UniProt P10747 19-220); test: flow cytometry, Jurkat cells (CD28), Fc fusion at 33.3 nM
T1 construct: whole, on cells; Target on Jurkat cells; also called Jurkats (CD28)

[2] = target: T2, human CTLA4 (huCTLA4), full-length, stably expressed on CHO cells (human, UniProt P16410 36-223); test: flow cytometry, CHO cells expressing huCTLA4
T2 construct: whole, on cells
T2 sequence (P16410 36-223): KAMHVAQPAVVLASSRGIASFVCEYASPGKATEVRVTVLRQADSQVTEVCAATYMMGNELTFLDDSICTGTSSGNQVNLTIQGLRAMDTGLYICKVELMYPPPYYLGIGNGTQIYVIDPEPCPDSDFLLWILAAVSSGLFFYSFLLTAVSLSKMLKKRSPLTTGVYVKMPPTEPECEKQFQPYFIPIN

[3] = target: T3, human PD-L1 (huPD-L1), full-length, stably expressed on CHO cells (human, UniProt Q9NZQ7 19-290); test: flow cytometry, CHO cells expressing huPD-L1
T3 construct: whole, on cells
T3 sequence (Q9NZQ7 19-290): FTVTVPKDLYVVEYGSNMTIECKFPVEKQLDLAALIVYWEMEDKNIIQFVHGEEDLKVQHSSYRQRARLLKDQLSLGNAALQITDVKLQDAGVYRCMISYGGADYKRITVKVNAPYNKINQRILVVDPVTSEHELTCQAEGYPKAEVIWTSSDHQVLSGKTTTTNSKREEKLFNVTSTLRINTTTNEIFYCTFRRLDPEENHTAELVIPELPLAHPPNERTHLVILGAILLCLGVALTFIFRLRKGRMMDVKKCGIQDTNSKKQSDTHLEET

human PD-L1 [4] = target: T4, human PD-L1 (human, UniProt Q9NZQ7 19-290); test: flow cytometry MFI relative to WT CD80 IgV-Fc, CHO/huPD-L1 cells, 33.3 nM
T4 construct: whole, on cells; CHO cells stably expressing huPD-L1; also called huPD-L1
T4 sequence (Q9NZQ7 19-290): as above

human CTLA-4 [5] = target: T5, human CTLA-4 (human, UniProt P16410 36-223); test: flow cytometry MFI relative to WT CD80 IgV-Fc, CHO/huCTLA-4 cells, 33.3 nM
T5 construct: whole, on cells; CHO cells stably expressing huCTLA4; also called huCTLA4
T5 sequence (P16410 36-223): as the sequence (P16410 36-223) above

human CD28 [6] = target: T6, human CD28 (human, UniProt P10747 19-220); test: flow cytometry MFI relative to WT CD80 IgV-Fc, Jurkat cells (CD28), 33.3 nM
T6 construct: whole, on cells; Jurkat/IL2 reporter cells, which endogenously express CD28

human PD-L1 [7] = target: T4, human PD-L1; test: flow cytometry, MFI on CHO/huPD-L1 cells divided by MFI on Jurkat cells (CD28), 33.3 nM
human PD-L1 [8] = target: T4, human PD-L1; test: flow cytometry, CHO cells stably expressing huPD-L1, 33.3 nM Fc fusion, PE anti-human Fc
human CTLA-4 [9] = target: T5, human CTLA-4; test: flow cytometry, CHO cells stably expressing huCTLA-4, 33.3 nM Fc fusion, PE anti-human Fc
human CD28 [10] = target: T6, human CD28; test: flow cytometry, Jurkat/IL2 reporter cells (endogenous CD28), 33.3 nM Fc fusion, PE anti-human Fc
[11] = target: T7, human CTLA4 expressed on CHO cells (human, UniProt P16410 36-223); test: flow cytometry, CHO cells stably expressing CTLA4, Fc fusion at 33.3 nM
T7 construct: whole, on cells; Target on CHO cells stably expressing CTLA4; also called huCTLA4
T7 sequence (P16410 36-223): as above

[12] = target: T8, human PD-L1 expressed on CHO cells (human, UniProt Q9NZQ7 19-290); test: flow cytometry, CHO cells stably expressing PD-L1, Fc fusion at 33.3 nM
T8 construct: whole, on cells; Target on CHO cells stably expressing PD-L1; also called huPD-L1
T8 sequence (Q9NZQ7 19-290): as the sequence (Q9NZQ7 19-290) above

B1: WT CD80 ECD-Fc (Abcam) (Fc fusion, UniProt P33681 35-242, looked up)
chain: VIHVTKEVKEVATLSCGHNVSVEELAQTRIYWQKEKKMVLTMMSGDMNIWPEYKNRTIFDITNNLSIVILALRPSDEGTYECVVLKYEKDAFKREHLAEVTLSVKADFPTPSISDFEIPTSNIRRIICSTSGGFPEPHLSWLENGEELNAINTTVSQDPETELYAVSSKLDFNMTTNHSFMCLIKYGHLRVNQTFNWNTTKQEHFPDN
notes: extracellular domain; not shown: Fc of the bought product, not described
- MFI at 33.3 nM [1]: 709 MFI

B3: variant CD80 IgV-Fc (inert) H18V/E35D/M47V/V68M/A71G/D90G (Fc fusion)
chain: VIHVTKEVKEVATLSCGVNVSVEELAQTRIYWQKDKKMVLTMMSGDVNIWPEYKNRTIFDITNNLSIMILGLRPSDEGTYECVVLKYEKGAFKREHLAEVTLSVKAD
notes: not shown: inert human IgG1 Fc
- Fold change to WT CD80 (human PD-L1 [4]): 264 fold
- Fold change to WT CD80 (human CTLA-4 [5]): 12.1 fold
- Fold change to WT CD80 (human CD28 [6]): 20.7 fold
- Ratio of PDL1:CD28 (human PD-L1 [7]): 20.6 ratio
- MFI at 33.3 nM (human PD-L1 [8]): 43600 MFI
- MFI at 33.3 nM (human CTLA-4 [9]): 16800 MFI
- MFI at 33.3 nM (human CD28 [10]): 2120 MFI

B4: CD80 E35D/M47V/N48K/V68M/K89N IgV-Fc (Fc fusion, not shown: small tags and cut ends; a dimerising Fc or GST)
chain: B3 chain with V18H, N48K, G71A, K89N, G90D
- MFI at 33.3 nM [1]: 1350 MFI
- MFI at 33.3 nM [11]: 20900 MFI
- MFI at 33.3 nM [12]: 14800 MFI

B5: variant CD80 IgV-Fc (inert) H18T/A26N/E35D/M47L/V68M/A71G (Fc fusion)
chain: B3 chain with V18T, A26N, V47L, G90D
notes: as for B3
- Fold change to WT CD80 (human PD-L1 [4]): 415 fold
- Fold change to WT CD80 (human CTLA-4 [5]): 15.1 fold
- Fold change to WT CD80 (human CD28 [6]): 13.4 fold
- Ratio of PDL1:CD28 (human PD-L1 [7]): 50.1 ratio
- MFI at 33.3 nM (human PD-L1 [8]): 68500 MFI
- MFI at 33.3 nM (human CTLA-4 [9]): 20900 MFI
- MFI at 33.3 nM (human CD28 [10]): 1370 MFI

B6: CD80 E35D/M47V/K89N IgV-Fc (Fc fusion, not shown: small tags and cut ends; a dimerising Fc or GST)
chain: B3 chain with V18H, M68V, G71A, K89N, G90D
- MFI at 33.3 nM [1]: 507 MFI
- MFI at 33.3 nM [11]: 39300 MFI
- MFI at 33.3 nM [12]: 4340 MFI

B8: variant CD80 IgV-Fc (inert) H18I/A26P/E35D/M47V/V68M/A71G (Fc fusion)
chain: B3 chain with V18I, A26P, G90D
notes: as for B3
- Fold change to WT CD80 (human PD-L1 [4]): 393 fold
- Fold change to WT CD80 (human CTLA-4 [5]): 15.8 fold
- Fold change to WT CD80 (human CD28 [6]): 25.2 fold
- Ratio of PDL1:CD28 (human PD-L1 [7]): 25.2 ratio
- MFI at 33.3 nM (human PD-L1 [8]): 64900 MFI
- MFI at 33.3 nM (human CTLA-4 [9]): 21900 MFI
- MFI at 33.3 nM (human CD28 [10]): 2570 MFI

B12: CD80 E35D/D46V/M47V/V68M/K89N IgV-Fc (Fc fusion, not shown: small tags and cut ends; a dimerising Fc or GST)
chain: B3 chain with V18H, D46V, G71A, K89N, G90D
- MFI at 33.3 nM [1]: 2120 MFI
- MFI at 33.3 nM [12]: 21600 MFI

More lines, now with the values ahead:

- MFI at 33.3 nM [2]: 15500 MFI
- MFI at 33.3 nM [3]: 1720 MFI
B2: variant CD80 IgV-Fc E35D/D46E/M47V/V68M/L85Q (Fc fusion, not shown: small tags and cut ends; a dimerising Fc or GST)
chain: B3 chain with V18H, D46E, G71A, L85Q, G90D

- Fold change to WT CD80 (human PD-L1 [4]): 401 fold
- Fold change to WT CD80 (human CTLA-4 [5]): 18.4 fold
- Fold change to WT CD80 (human CD28 [6]): 80.3 fold
- Ratio of PDL1:CD28 (human PD-L1 [7]): 8.1 ratio
- MFI at 33.3 nM (human PD-L1 [8]): 66200 MFI
- MFI at 33.3 nM (human CTLA-4 [9]): 25400 MFI
- MFI at 33.3 nM (human CD28 [10]): 8190 MFI
B7: variant CD80 IgV-Fc (inert) H18V/A26G/E35D/M47V/V68M/A71G/D90G (Fc fusion)
chain: B3 chain with A26G
notes: as for B3

- Fold change to WT CD80 (human PD-L1 [4]): 318 fold
- Fold change to WT CD80 (human CTLA-4 [5]): 11.7 fold
- Fold change to WT CD80 (human CD28 [6]): 24 fold
- Ratio of PDL1:CD28 (human PD-L1 [7]): 21.4 ratio
- MFI at 33.3 nM (human PD-L1 [8]): 52400 MFI
- MFI at 33.3 nM (human CTLA-4 [9]): 16200 MFI
- MFI at 33.3 nM (human CD28 [10]): 2450 MFI
B9: variant CD80 IgV-Fc (inert) H18V/A26P/E35D/M47L/V68M/A71G (Fc fusion)
chain: B3 chain with A26P, V47L, G90D
notes: as for B3

- MFI at 33.3 nM [2]: 13900 MFI
- MFI at 33.3 nM [3]: 1720 MFI
B10: variant CD80 IgV-Fc E35D/M47V/V68M/L85M/Y87D (Fc fusion, not shown: small tags and cut ends; a dimerising Fc or GST)
chain: B3 chain with V18H, G71A, L85M, Y87D, G90D

- Fold change to WT CD80 (human PD-L1 [4]): 408 fold
- Fold change to WT CD80 (human CTLA-4 [5]): 16.6 fold
- Fold change to WT CD80 (human CD28 [6]): 35.7 fold
- Ratio of PDL1:CD28 (human PD-L1 [7]): 18.5 ratio
- MFI at 33.3 nM (human PD-L1 [8]): 67300 MFI
- MFI at 33.3 nM (human CTLA-4 [9]): 22900 MFI
- MFI at 33.3 nM (human CD28 [10]): 3640 MFI
B11: variant CD80 IgV-Fc (inert) H18V/A26K/E35D/M47L/V68M/A71G (Fc fusion)
chain: B3 chain with A26K, V47L, G90D
notes: as for B3

- Fold change to WT CD80 (human PD-L1 [4]): 204 fold
- Fold change to WT CD80 (human CTLA-4 [5]): 12.8 fold
- Fold change to WT CD80 (human CD28 [6]): 30.6 fold
- Ratio of PDL1:CD28 (human PD-L1 [7]): 10.7 ratio
- MFI at 33.3 nM (human PD-L1 [8]): 33600 MFI
- MFI at 33.3 nM (human CTLA-4 [9]): 17700 MFI
- MFI at 33.3 nM (human CD28 [10]): 3130 MFI
B13: variant CD80 IgV-Fc (inert) H18V/A26Q/E35D/M47V/V68L/A71G/D90G (Fc fusion)
chain: B3 chain with A26Q, M68L
notes: as for B3
